The record followed here is PMC10191858, “DNA segment capture by Smc5/6 holocomplexes” (Nature Structural & Molecular Biology, 2023).

The target in the assay is T1, Smc5(G1054C), Smc5 with the engineered cysteine of the Smc5–Nse4 interface (S. cerevisiae, UniProt Q08204 1-1093, G1054C).
T1 construct: Smc5, S. cerevisiae, subunit of the Smc5/6 hexamer; engineered cysteine G1054C for BMOE cross-linking to Nse4; Stood in the assay as a subunit of the purified hexamer (Smc5, Smc6, Nse1-4)
T1 sequence (looked up): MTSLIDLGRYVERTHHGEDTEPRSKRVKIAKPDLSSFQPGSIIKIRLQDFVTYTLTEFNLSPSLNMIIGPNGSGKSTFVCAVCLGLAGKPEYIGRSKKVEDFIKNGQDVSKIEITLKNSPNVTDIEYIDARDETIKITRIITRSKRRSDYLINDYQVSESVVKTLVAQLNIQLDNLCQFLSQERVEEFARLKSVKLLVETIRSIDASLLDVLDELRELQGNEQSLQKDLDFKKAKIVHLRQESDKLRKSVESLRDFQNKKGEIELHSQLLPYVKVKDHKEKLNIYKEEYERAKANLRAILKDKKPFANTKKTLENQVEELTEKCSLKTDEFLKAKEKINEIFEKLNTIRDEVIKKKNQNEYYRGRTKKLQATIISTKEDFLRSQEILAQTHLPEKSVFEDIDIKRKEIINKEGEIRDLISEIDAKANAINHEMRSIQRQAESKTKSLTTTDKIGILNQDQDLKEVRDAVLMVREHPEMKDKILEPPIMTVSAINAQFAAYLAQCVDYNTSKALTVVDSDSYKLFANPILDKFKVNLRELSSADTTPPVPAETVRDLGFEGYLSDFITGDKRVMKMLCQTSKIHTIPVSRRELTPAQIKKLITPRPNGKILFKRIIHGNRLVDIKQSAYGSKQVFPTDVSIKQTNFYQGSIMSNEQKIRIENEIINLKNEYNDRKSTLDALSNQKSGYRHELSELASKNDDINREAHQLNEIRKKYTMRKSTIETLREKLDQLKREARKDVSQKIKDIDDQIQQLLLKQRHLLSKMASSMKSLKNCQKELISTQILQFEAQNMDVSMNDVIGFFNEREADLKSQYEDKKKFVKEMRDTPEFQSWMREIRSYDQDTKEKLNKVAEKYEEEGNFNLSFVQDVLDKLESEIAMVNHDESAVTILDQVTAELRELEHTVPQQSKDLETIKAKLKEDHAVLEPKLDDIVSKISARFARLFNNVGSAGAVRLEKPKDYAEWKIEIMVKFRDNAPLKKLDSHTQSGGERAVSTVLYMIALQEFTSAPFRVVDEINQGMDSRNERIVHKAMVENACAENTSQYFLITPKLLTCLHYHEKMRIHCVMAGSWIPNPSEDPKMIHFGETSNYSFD
The assay can be described thus: cross-linking; site-specific BMOE cross-linking (1 mM, 45 s, stopped with 10 mM DTT) of engineered cysteine pairs in purified Smc5/6 hexamers at 0.5 uM; 10 mM Hepes-KOH pH 7.5, 150 mM KOAc, 2 mM MgCl2, 20% glycerol, RT; with or without Nse5/6 dimer (0.625 uM), 2 mM ATP, 5 nM plasmid DNA (25 kbp); SDS-PAGE and Coomassie staining, bands quantified. The conditions noted are these: both partners purified.

B1: Nse5/6 dimer (loader) (complex, S. cerevisiae)
chain 1: MDGALINSVLYVSPRNGAHYFVELTEKHLLAFEMLNSMCLLENYDHVLLFLECQFGKSHNLAVIPFDIILVLFTLSTLSEYYKEPILRANDPYNTSRETLSRRALKLLQKYLAILKEFDSEQYNLYDLELLRCQFFLAIDTLTPKKQKWGFDRFRRTKSESGVTYRQNASVDPELDQAKTFKNPYRSYISCLEQRNTILGNRLLNLKLNEPGEFINMILWTLSNSLQESTPLFLSSHEIWMPLLEILIDLFSCRQDYFIQHEVAQNVSKSLFVQRLSESPLAVFFESLNTRNFANRFSEYVFLNCDYKLPSDNYATPVHPVYNGENTIVDTYIPTIKCSPLYKSQKSLALRRKLIGSCFKLLLRVPDGHRLITPRIVADDVIQGISRTLASFNDILQFKKFFMTENLSQESYFIPLLAEGTLSEILKDTQECVVILTLVENLSDGVSFCNEVIGLVKSKCFAFTEQCSQASYEEAVLNIEKCDVCLLVLLRYLLHLIGTEAILDAKEQLEMLHAIEKNDSGRRQWAKALNLGNDPPLLYPIVSQMFGVHDKSVIIE
chain 2: MGSVNSSPNEEFETVPDSQISGFDSPLIPTSVGSYFRDDDDDEKVHPNFISDPENDSLNSDEEFSSLENSDLNLSGAKAESGDDFDPILKRTIISKRKAPSNNEDEEIVKTPRKLVNYVPLKIFNLGDSFDDTITTTVAKLQDLKKEILDSPRSNKSIVITSNTVAKSELQKSIKFSGSIPEIYLDVVTKETISDKYKDWHFISKNCHYEQLMDLEMKDTAYSFLFGSSRSQGKVPEFVHLKCPSITNLLVLFGVNQEKCNSLKINYEKKENSRYDNLCTIFPVNKMLKFLMYFYSDDDNDDVREFFLKAFICLILDRKVFNAMESDHRLCFKVLELFNEAHFINSYFEIVDKNDFFLHYRLLQIFPHLQSALLRRRFSEKQGRTETIQQNIIKEFNEFFDCKNYKNLLYFILTMYGSKFIPFGPKCQVTEYFKDCILDISNETTNDVEISILKGILNLFSKIR
notes: Nse5, S. cerevisiae; a native cysteine of it cross-links off-target to Smc5(G1054C); Nse6, S. cerevisiae; also called Nse5/6 subcomplex; Nse5/6 complex
Regarding B1, the binding result is “binds”.
